Data from article PMC3735194 (mBio, 2013).

Target: the molecule itself
Test: native MS

| Protein | stoichiometry N |
| --- | --- |
| D166A mutant ADI (enzyme, UniProt P0C0B3 1-411, looked up) MTAQTPIHVYSEIGKLKKVLLHRPGKEIENLMPDYLERLLFDDIPFLEDAQKEHDAFAQALRDEGIEVLYLETLAAESLVTPEIREAFIDEYLSEANIRGRATKKAIRELLMAIEDNQELIEKTMAGVQKSELPEIPASEKGLTDLVESNYPFAIDPMPNLYFTRAPFATIGTGVSLNHMFSETRNRETLYGKYIFTHHPIYGGGKVPMVYDRNETTRIEGGDELVLSKDVLAVGISQRTDAASIEKLLVNIFKQNLGFKKVLAFEFANNRKFMHLDTVFTMVDYDKFTIHPEIEGDLRVYSVTYDNEELHIVEEKGDLAELLAANLGVEKVDLIRCGGDNLVAAGREQWNDGSNTLTIAPGVVVVYNRNTITNAILESKGLKLIKIHGSELVRGRGGPRCMSMPFEREDI | 2 |
| H275A mutant ADI (enzyme, UniProt P0C0B3 1-411, looked up) MTAQTPIHVYSEIGKLKKVLLHRPGKEIENLMPDYLERLLFDDIPFLEDAQKEHDAFAQALRDEGIEVLYLETLAAESLVTPEIREAFIDEYLSEANIRGRATKKAIRELLMAIEDNQELIEKTMAGVQKSELPEIPASEKGLTDLVESNYPFAIDPMPNLYFTRDPFATIGTGVSLNHMFSETRNRETLYGKYIFTHHPIYGGGKVPMVYDRNETTRIEGGDELVLSKDVLAVGISQRTDAASIEKLLVNIFKQNLGFKKVLAFEFANNRKFMALDTVFTMVDYDKFTIHPEIEGDLRVYSVTYDNEELHIVEEKGDLAELLAANLGVEKVDLIRCGGDNLVAAGREQWNDGSNTLTIAPGVVVVYNRNTITNAILESKGLKLIKIHGSELVRGRGGPRCMSMPFEREDI | 2 |
| E220A mutant ADI (enzyme, UniProt P0C0B3 1-411, looked up) MTAQTPIHVYSEIGKLKKVLLHRPGKEIENLMPDYLERLLFDDIPFLEDAQKEHDAFAQALRDEGIEVLYLETLAAESLVTPEIREAFIDEYLSEANIRGRATKKAIRELLMAIEDNQELIEKTMAGVQKSELPEIPASEKGLTDLVESNYPFAIDPMPNLYFTRDPFATIGTGVSLNHMFSETRNRETLYGKYIFTHHPIYGGGKVPMVYDRNETTRIAGGDELVLSKDVLAVGISQRTDAASIEKLLVNIFKQNLGFKKVLAFEFANNRKFMHLDTVFTMVDYDKFTIHPEIEGDLRVYSVTYDNEELHIVEEKGDLAELLAANLGVEKVDLIRCGGDNLVAAGREQWNDGSNTLTIAPGVVVVYNRNTITNAILESKGLKLIKIHGSELVRGRGGPRCMSMPFEREDI | 2 |
| D277A mutant ADI (enzyme, UniProt P0C0B3 1-411, looked up) MTAQTPIHVYSEIGKLKKVLLHRPGKEIENLMPDYLERLLFDDIPFLEDAQKEHDAFAQALRDEGIEVLYLETLAAESLVTPEIREAFIDEYLSEANIRGRATKKAIRELLMAIEDNQELIEKTMAGVQKSELPEIPASEKGLTDLVESNYPFAIDPMPNLYFTRDPFATIGTGVSLNHMFSETRNRETLYGKYIFTHHPIYGGGKVPMVYDRNETTRIEGGDELVLSKDVLAVGISQRTDAASIEKLLVNIFKQNLGFKKVLAFEFANNRKFMHLATVFTMVDYDKFTIHPEIEGDLRVYSVTYDNEELHIVEEKGDLAELLAANLGVEKVDLIRCGGDNLVAAGREQWNDGSNTLTIAPGVVVVYNRNTITNAILESKGLKLIKIHGSELVRGRGGPRCMSMPFEREDI | 2 |
| C401A mutant ADI (enzyme, UniProt P0C0B3 1-411, looked up) MTAQTPIHVYSEIGKLKKVLLHRPGKEIENLMPDYLERLLFDDIPFLEDAQKEHDAFAQALRDEGIEVLYLETLAAESLVTPEIREAFIDEYLSEANIRGRATKKAIRELLMAIEDNQELIEKTMAGVQKSELPEIPASEKGLTDLVESNYPFAIDPMPNLYFTRDPFATIGTGVSLNHMFSETRNRETLYGKYIFTHHPIYGGGKVPMVYDRNETTRIEGGDELVLSKDVLAVGISQRTDAASIEKLLVNIFKQNLGFKKVLAFEFANNRKFMHLDTVFTMVDYDKFTIHPEIEGDLRVYSVTYDNEELHIVEEKGDLAELLAANLGVEKVDLIRCGGDNLVAAGREQWNDGSNTLTIAPGVVVVYNRNTITNAILESKGLKLIKIHGSELVRGRGGPRAMSMPFEREDI | 4 |
